Assay results as given in publication PMC9174195, “Structural insights into human brain–gut peptide cholecystokinin receptors” (Cell Discovery, 2022).
Square brackets hold non-standard residues; d marks the D form. Ends that are not written are not given here. sY = N[C@@H](Cc1ccc(OS(=O)(=O)O)cc1)C(=O)O

How the values were obtained:
CCK2R L335A (human) = CCK2R L335A (human) (UniProt P32239)
CCK2R I156A (human) = CCK2R I156A (human) (UniProt P32239)
CCK2R Q166A (human) = CCK2R Q166A (human) (UniProt P32239)
CCK2R R152A (human) = CCK2R R152A (human) (UniProt P32239)
CCK2R K324N (human) = CCK2R K324N (human) (UniProt P32239)
[1] = molecular target: T1, human CCK2R with 15-residue depletion at the C-terminus, N-terminal Flag-tag, C-terminal LgBiT and double MBP … (human, UniProt P32239 1-432); assay: cryo-EM structure; gastrin-17–CCK2R–Gq–scFv16 complex; CCK2R, GqiN, Gβγ-peptide and Ric-8A co-expressed in Sf9, ligand and apyrase added, complex purified on MBP resin and Superdex 200 (20 mM HEPES pH 7.5, 100 mM NaCl); 13 mg/mL on the grid; 3.1 Å; conditions: both partners purified
T1 construct: human cholecystokinin receptor CCK2R, wild type, C-terminal 15 residues removed; also called CCK2 receptor; gastrin receptor; not shown: LgBiT, C-terminal, kept
T1 sequence (looked up): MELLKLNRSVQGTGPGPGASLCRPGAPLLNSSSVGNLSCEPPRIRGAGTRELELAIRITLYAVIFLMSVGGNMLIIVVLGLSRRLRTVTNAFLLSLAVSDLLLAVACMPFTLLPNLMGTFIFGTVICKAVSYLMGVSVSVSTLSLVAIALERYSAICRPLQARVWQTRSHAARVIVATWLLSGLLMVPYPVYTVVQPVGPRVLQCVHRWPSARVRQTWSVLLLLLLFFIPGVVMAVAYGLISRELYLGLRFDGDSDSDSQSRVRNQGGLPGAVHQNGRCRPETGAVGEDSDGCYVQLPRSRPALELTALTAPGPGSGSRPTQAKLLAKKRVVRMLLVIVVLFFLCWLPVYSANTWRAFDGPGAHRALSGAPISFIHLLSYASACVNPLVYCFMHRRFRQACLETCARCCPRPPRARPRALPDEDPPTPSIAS

“Gαq with the 29 N-terminal amino acids replaced by the corresponding sequence of Gαi1 (GqiN) (from UniProt P50148 30-359)” was tested, and the CCK-8 efficacy, CCK-8-induced Gαq–Gγ dissociation (NanoBiT) assay (% reduction of efficacy) (CCK2R L335A (human)) was 50, the CCK-8 efficacy, CCK-8-induced Gαq–Gγ dissociation (NanoBiT) assay (% reduction of efficacy) (CCK2R I156A (human)) was 50 and the CCK-8 efficacy, CCK-8-induced Gαq–Gγ dissociation (NanoBiT) assay (% reduction of efficacy) (CCK2R Q166A (human)) was 50. It also gave an efficacy of G protein signaling against the wild type, CCK-8-induced Gαq–Gγ dissociation (NanoBiT) assay (% of the wild-type) (CCK2R R152A (human)) of 30 and a potency of G protein signaling against the wild type, CCK-8-induced Gαq–Gγ dissociation (NanoBiT) assay (CCK2R R152A (human)) greater than 3 fold.

With “dominant-negative human Gαs (DNGαs) (from UniProt P63092 1-394) (natural protein)” the coupling potency with Gs against wild-type CCK2R, CCK-8-induced cAMP accumulation (Fig. 7d) (CCK2R K324N (human)) was greater than 3 fold.

B1: sulfated gastrin-17 (peptide, UniProt P01350 76-92, looked up)
peptide: QGPWLEEEEEA[sY]GWMDF
modifications: not fully specified (residue 1, C-terminus)
notes: gastrin-17, cut product of the gastrin precursor
B1: binds [1].
